Data from IntAct's records for PubMed 25502805.

B1: Cyclin-dependent kinase 4 (Homo sapiens), P11802 (parent)
chain: MATSRYEPVAEIGVGAYGTVYKARDPHSGHFVALKSVRVPNGGGGGGGLPISTVREVALLRRLEAFEHPNVVRLMDVCATSRTDREIKVTLVFEHVDQDLRTYLDKAPPPGLPAETIKDLMRQFLRGLDFLHANCIVHRDLKPENILVTSGGTVKLADFGLARIYSYQMALTPVVVTLWYRAPEVLLQSTYATPVDMWSVGCIFAEMFRRKPLFCGNSEADQLGKIFDLIGLPPEDDWPRDVSLPRGAFPPRGPRPVQSVVPEMEESGAQLLLEMLTFNPHKRISAFRALQHSYLHKDEGNPE
B2: Barrier-to-autointegration factor (Homo sapiens), O75531 (parent)
chain: MTTSQKHRDFVAEPMGEKPVGSLAGIGEVLGKKLEERGFDKAYVVLGQFLVLKKDEDLFREWLKDTCGANAKQSRDCFGCLREWCDAFL
partner: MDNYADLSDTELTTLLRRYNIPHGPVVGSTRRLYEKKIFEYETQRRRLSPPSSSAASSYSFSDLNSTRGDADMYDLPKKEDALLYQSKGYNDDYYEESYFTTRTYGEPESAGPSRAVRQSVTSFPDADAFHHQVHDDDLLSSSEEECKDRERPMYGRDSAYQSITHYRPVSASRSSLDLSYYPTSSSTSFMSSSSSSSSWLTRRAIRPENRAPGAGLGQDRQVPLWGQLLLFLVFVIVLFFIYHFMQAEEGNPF
B3: Mothers against decapentaplegic homolog 4 (Homo sapiens), Q13485 (parent)
chain: MDNMSITNTPTSNDACLSIVHSLMCHRQGGESETFAKRAIESLVKKLKEKKDELDSLITAITTNGAHPSKCVTIQRTLDGRLQVAGRKGFPHVIYARLWRWPDLHKNELKHVKYCQYAFDLKCDSVCVNPYHYERVVSPGIDLSGLTLQSNAPSSMMVKDEYVHDFEGQPSLSTEGHSIQTIQHPPSNRASTETYSTPALLAPSESNATSTANFPNIPVASTSQPASILGGSHSEGLLQIASGPQPGQQQNGFTGQPATYHHNSTTTWTGSRTAPYTPNLPHHQNGHLQHHPPMPPHPGHYWPVHNELAFQPPISNHPAPEYWCSIAYFEMDVQVGETFKVPSSCPIVTVDGYVDPSGGDRFCLGQLSNVHRTEAIERARLHIGKGVQLECKGEGDVWVRCLSDHAVFVQSYYLDREAGRAPGDAVHKIYPSAYIKVFDLRQCHRQMQQQAATAQAAAAAQAAAVAGNIPGPGSVGGIAPAISLSAAAGIGVDDLRRLCILRMSFVKGWGPDYPRQSIKETPCWIEIHLHRALQLLDEVLHTMPIADPQPLD
partner: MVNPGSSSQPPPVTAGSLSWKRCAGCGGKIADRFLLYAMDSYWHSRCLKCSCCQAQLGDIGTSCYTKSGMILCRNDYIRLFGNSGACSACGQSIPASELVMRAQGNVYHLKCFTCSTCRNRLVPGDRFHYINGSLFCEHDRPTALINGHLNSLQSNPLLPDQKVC
B4: Peroxisomal biogenesis factor 3 (Homo sapiens), P56589 (parent)
chain: MLRSVWNFLKRHKKKCIFLGTVLGGVYILGKYGQKKIREIQEREAAEYIAQARRQYHFESNQRTCNMTVLSMLPTLREALMQQLNSESLTALLKNRPSNKLEIWEDLKIISFTRSTVAVYSTCMLVVLLRVQLNIIGGYIYLDNAAVGKNGTTILAPPDVQQQYLSSIQHLLGDGLTELITVIKQAVQKVLGSVSLKHSLSLLDLEQKLKEIRNLVEQHKSSSWINKDGSKPLLCHYMMPDEETPLAVQACGLSPRDITTIKLLNETRDMLESPDFSTVLNTCLNRGFSRLLDNMAEFFRPTEQDLQHGNSMNSLSSVSLPLAKIIPIVNGQIHSVCSETPSHFVQDLLTMEQVKDFAANVYEAFSTPQQLEK
partner: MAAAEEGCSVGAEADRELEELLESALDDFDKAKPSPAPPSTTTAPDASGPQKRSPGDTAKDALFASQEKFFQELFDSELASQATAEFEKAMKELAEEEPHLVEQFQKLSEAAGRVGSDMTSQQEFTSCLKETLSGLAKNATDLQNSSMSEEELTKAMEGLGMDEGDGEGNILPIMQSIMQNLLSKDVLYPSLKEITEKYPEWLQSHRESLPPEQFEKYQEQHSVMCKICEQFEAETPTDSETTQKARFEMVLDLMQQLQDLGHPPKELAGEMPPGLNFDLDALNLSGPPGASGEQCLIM
B5: DNA mismatch repair protein Mlh1 (Homo sapiens), P40692 (parent)
chain: MSFVAGVIRRLDETVVNRIAAGEVIQRPANAIKEMIENCLDAKSTSIQVIVKEGGLKLIQIQDNGTGIRKEDLDIVCERFTTSKLQSFEDLASISTYGFRGEALASISHVAHVTITTKTADGKCAYRASYSDGKLKAPPKPCAGNQGTQITVEDLFYNIATRRKALKNPSEEYGKILEVVGRYSVHNAGISFSVKKQGETVADVRTLPNASTVDNIRSIFGNAVSRELIEIGCEDKTLAFKMNGYISNANYSVKKCIFLLFINHRLVESTSLRKAIETVYAAYLPKNTHPFLYLSLEISPQNVDVNVHPTKHEVHFLHEESILERVQQHIESKLLGSNSSRMYFTQTLLPGLAGPSGEMVKSTTSLTSSSTSGSSDKVYAHQMVRTDSREQKLDAFLQPLSKPLSSQPQAIVTEDKTDISSGRARQQDEEMLELPAPAEVAAKNQSLEGDTTKGTSEMSEKRGPTSSNPRKRHREDSDVEMVEDDSRKEMTAACTPRRRIINLTSVLSLQEEINEQGHEVLREMLHNHSFVGCVNPQWALAQHQTKLYLLNTTKLSEELFYQILIYDFANFGVLRLSEPAPLFDLAMLALDSPESGWTEEDGPKEGLAEYIVEFLKKKAEMLADYFSLEIDEEGNLIGLPLLIDNYVPPLEGLPIFILRLATEVNWDEEKECFESLSKECAMFYSIRKQYISEESTLSGQQSEVPGSIPNSWKWTVEHIVYKALRSHILPPKHFTEDGNILQLANLPDLYKVFERC
B6: Kelch-like protein 3 (Homo sapiens), Q9UH77 (parent)
chain: MEGESVKLSSQTLIQAGDDEKNQRTITVNPAHMGKAFKVMNELRSKQLLCDVMIVAEDVEIEAHRVVLAACSPYFCAMFTGDMSESKAKKIEIKDVDGQTLSKLIDYIYTAEIEVTEENVQVLLPAASLLQLMDVRQNCCDFLQSQLHPTNCLGIRAFADVHTCTDLLQQANAYAEQHFPEVMLGEEFLSLSLDQVCSLISSDKLTVSSEEKVFEAVISWINYEKETRLEHMAKLMEHVRLPLLPRDYLVQTVEEEALIKNNNTCKDFLIEAMKYHLLPLDQRLLIKNPRTKPRTPVSLPKVMIVVGGQAPKAIRSVECYDFEEDRWDQIAELPSRRCRAGVVFMAGHVYAVGGFNGSLRVRTVDVYDGVKDQWTSIASMQERRSTLGAAVLNDLLYAVGGFDGSTGLASVEAYSYKTNEWFFVAPMNTRRSSVGVGVVEGKLYAVGGYDGASRQCLSTVEQYNPATNEWIYVADMSTRRSGAGVGVLSGQLYATGGHDGPLVRKSVEVYDPGTNTWKQVADMNMCRRNAGVCAVNGLLYVVGGDDGSCNLASVEYYNPVTDKWTLLPTNMSTGRSYAGVAVIHKSL
B7: Interleukin-1 receptor-associated kinase 4 (Homo sapiens), Q9NWZ3 (parent)
chain: MNKPITPSTYVRCLNVGLIRKLSDFIDPQEGWKKLAVAIKKPSGDDRYNQFHIRRFEALLQTGKSPTSELLFDWGTTNCTVGDLVDLLIQNEFFAPASLLLPDAVPKTANTLPSKEAITVQQKQMPFCDKDRTLMTPVQNLEQSYMPPDSSSPENKSLEVSDTRFHSFSFYELKNVTNNFDERPISVGGNKMGEGGFGVVYKGYVNNTTVAVKKLAAMVDITTEELKQQFDQEIKVMAKCQHENLVELLGFSSDGDDLCLVYVYMPNGSLLDRLSCLDGTPPLSWHMRCKIAQGAANGINFLHENHHIHRDIKSANILLDEAFTAKISDFGLARASEKFAQTVMTSRIVGTTAYMAPEALRGEITPKSDIYSFGVVLLEIITGLPAVDEHREPQLLLDIKEEIEDEEKTIEDYIDKKMNDADSTSVEAMYSVASQCLHEKKNKRPDIKKVQQLLQEMTAS

Variants of: B1
Details: with ccnd1_human CCND1, P24385

| effect of a mutation on the interaction | Variant |
| --- | --- |
| with no effect | R24H |

Variants of: B2
Details: with emd_human EMD

| effect of a mutation on the interaction | Variant |
| --- | --- |
| with no effect | A12T |

Variants of: B3
Details: with lmo4_human LMO4, P61968

| effect of a mutation on the interaction | Variant |
| --- | --- |
| with no effect | R361C |
| with no effect | N13S |
| with no effect | Y353S |

Variants of: B4
Details: with pex19_human PEX19, P40855

| effect of a mutation on the interaction | Variant |
| --- | --- |
| with no effect | D347Y |

Variants of: B5
Details: with hsp7c_human HSPA8, P11142

| effect of a mutation on the interaction | Variant |
| --- | --- |
| increasing interaction strength | I107R |

Variants of: B6
Details: with cul3_human CUL3, Q13618

| effect of a mutation on the interaction | Variant |
| --- | --- |
| disrupting interaction strength | R228G |
| disrupting interaction strength | C164F |

Variants of: B7
Details: with myd88_human MYD88, Q99836

| effect of a mutation on the interaction | Variant |
| --- | --- |
| disrupting interaction strength | R12C |
